Results reported in the supplement of paper PMC9112550, “Optimization of the antimicrobial peptide Bac7 by deep mutational scanning” (BMC Biology, 2022).

Test system: Escherichia coli TOP10
Assay: shrunken log2 fold change of peptide-encoding DNA abundance (4.5 h post-induction vs induction); higher = less antimicrobial activity (less host growth inhibition)
Conditions: time post-induction: 4.5 h; library: site-saturation at positions 5, 18, 19, 20
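Note: peptides expressed intracellularly from a pBAD plasmid library in pooled LB shake-flask culture, induced with 0.3% L-arabinose, DNA abundance read by NGS, three biological replicates, DESeq2 with apeglm shrinkage.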

Sequence	shrunken log2 fold change
RRIRGRPPRLPRPRPRPHCCPRP	0.0841
RRIRCRPPRLPRPRPRPNSKPRP	0.297
RRIRVRPPRLPRPRPRPLVMPRP	-0.902
RRIRVRPPRLPRPRPRPWKPPRP	0.0596
RRIRIRPPRLPRPRPRPAWTPRP	0.304
RRIRVRPPRLPRPRPRPKNSPRP	-0.34
RRIRFRPPRLPRPRPRPLQKPRP	-0.235
RRIRNRPPRLPRPRPRPRWNPRP	-0.297
RRIRTRPPRLPRPRPRPYRRPRP	-0.0138
RRIRIRPPRLPRPRPRPTGFPRP	-0.0748
RRIRGRPPRLPRPRPRPHRVPRP	0.0916
RRIRGRPPRLPRPRPRPTTSPRP	1.11
RRIRKRPPRLPRPRPRPLEIPRP	0.281
RRIRKRPPRLPRPRPRPWLSPRP	0.0773
RRIRLRPPRLPRPRPRPKVDPRP	-0.00247
RRIRSRPPRLPRPRPRPIVQPRP	0.144
RRIRNRPPRLPRPRPRPKCAPRP	0.243
RRIRQRPPRLPRPRPRPWIRPRP	-0.166
RRIRQRPPRLPRPRPRPEIRPRP	0.0114
RRIRARPPRLPRPRPRPWYLPRP	-0.161
RRIRMRPPRLPRPRPRPAPHPRP	1.33
RRIRFRPPRLPRPRPRPEPYPRP	0.0129
RRIRHRPPRLPRPRPRPWMPPRP	0.0474
RRIRVRPPRLPRPRPRPMIIPRP	-1.25
RRIRPRPPRLPRPRPRPTYDPRP	-0.212

Sequence	shrunken log2 fold change
RRIRYRPPRLPRPRPRPSSCPRP	-0.101
RRIRVRPPRLPRPRPRPDGPPRP	0.0955
RRIRLRPPRLPRPRPRPPMSPRP	0.0743
RRIRERPPRLPRPRPRPVVAPRP	0.182
RRIRPRPPRLPRPRPRPYVDPRP	-0.117
RRIRWRPPRLPRPRPRPCKYPRP	-0.509
RRIRNRPPRLPRPRPRPRVRPRP	0.212
RRIRARPPRLPRPRPRPWAPPRP	0.0486
RRIRDRPPRLPRPRPRPRNRPRP	0.0378
RRIRRRPPRLPRPRPRPYNDPRP	-0.176
RRIRSRPPRLPRPRPRPMLKPRP	-0.0793
RRIRYRPPRLPRPRPRPMGPPRP	-0.121
RRIRSRPPRLPRPRPRPFKEPRP	-0.117
RRIRTRPPRLPRPRPRPIVWPRP	-0.0862
RRIRNRPPRLPRPRPRPCGNPRP	-0.0905
RRIRHRPPRLPRPRPRPEINPRP	-0.253
RRIRTRPPRLPRPRPRPAPKPRP	0.371
RRIRMRPPRLPRPRPRPWGFPRP	0.0809
RRIRHRPPRLPRPRPRPKSRPRP	-0.0231
RRIRGRPPRLPRPRPRPYKWPRP	-0.0702
RRIRNRPPRLPRPRPRPEWIPRP	-0.16
RRIRERPPRLPRPRPRPYMTPRP	-0.124
RRIRGRPPRLPRPRPRPMPIPRP	0.0958
RRIRNRPPRLPRPRPRPESTPRP	-0.0329
RRIRFRPPRLPRPRPRPMNWPRP	-0.143

Sequence	shrunken log2 fold change
RRIRSRPPRLPRPRPRPMQVPRP	-0.064
RRIRCRPPRLPRPRPRPKKYPRP	-0.485
RRIRARPPRLPRPRPRPVSKPRP	0.141
RRIRLRPPRLPRPRPRPGYWPRP	-0.0133
RRIRPRPPRLPRPRPRPWHYPRP	0.0497
RRIRTRPPRLPRPRPRPAKWPRP	-0.000772
RRIRLRPPRLPRPRPRPTYAPRP	-0.167
RRIRRRPPRLPRPRPRPEGMPRP	1.27
RRIRLRPPRLPRPRPRPGLTPRP	-0.00899
RRIRWRPPRLPRPRPRPEPEPRP	0.838
RRIRKRPPRLPRPRPRPGPIPRP	0.204
RRIRHRPPRLPRPRPRPSVLPRP	-0.242
RRIRPRPPRLPRPRPRPLCIPRP	-0.403
RRIRQRPPRLPRPRPRPPSWPRP	0.581
RRIRHRPPRLPRPRPRPSMGPRP	-0.149
RRIRFRPPRLPRPRPRPYSGPRP	-0.293
RRIRYRPPRLPRPRPRPLAHPRP	-0.15
RRIRARPPRLPRPRPRPPLIPRP	0.299
RRIRMRPPRLPRPRPRPATQPRP	1.14
RRIRHRPPRLPRPRPRPPAKPRP	0.539
RRIRYRPPRLPRPRPRPFNIPRP	-0.973
RRIRNRPPRLPRPRPRPCVAPRP	-0.23
RRIRVRPPRLPRPRPRPISAPRP	1.18
RRIRWRPPRLPRPRPRPEYTPRP	0.166
RRIRYRPPRLPRPRPRPGWDPRP	-0.0163

Sequence	shrunken log2 fold change
RRIRVRPPRLPRPRPRPPINPRP	0.0484
RRIRSRPPRLPRPRPRPMENPRP	0.0424
RRIRQRPPRLPRPRPRPVETPRP	-0.00674
RRIRFRPPRLPRPRPRPLHLPRP	-0.166
RRIRERPPRLPRPRPRPIHDPRP	0.0116
RRIRVRPPRLPRPRPRPALYPRP	0.22
RRIRDRPPRLPRPRPRPKEVPRP	0.174
RRIRARPPRLPRPRPRPGYCPRP	-0.012
RRIRWRPPRLPRPRPRPEWLPRP	0.803
RRIRARPPRLPRPRPRPDLVPRP	0.249
RRIRLRPPRLPRPRPRPVKSPRP	-0.075
RRIRARPPRLPRPRPRPQIKPRP	0.048
RRIRIRPPRLPRPRPRPQGMPRP	-0.501
RRIRGRPPRLPRPRPRPGEQPRP	1.23
RRIRHRPPRLPRPRPRPFSWPRP	-0.0533
RRIRPRPPRLPRPRPRPVMEPRP	-0.101
RRIRNRPPRLPRPRPRPSMQPRP	-0.152
RRIRIRPPRLPRPRPRPGSMPRP	-0.501
RRIRVRPPRLPRPRPRPQIPPRP	-0.298
RRIRHRPPRLPRPRPRPNMQPRP	-0.0674
RRIRPRPPRLPRPRPRPSGGPRP	0.191
RRIRSRPPRLPRPRPRPVHRPRP	-0.0285
RRIRYRPPRLPRPRPRPFIYPRP	-0.86
RRIRTRPPRLPRPRPRPTPNPRP	0.293
RRIRIRPPRLPRPRPRPPDRPRP	0.109

Sequence	shrunken log2 fold change
RRIRVRPPRLPRPRPRPMNRPRP	-0.182
RRIRQRPPRLPRPRPRPMLDPRP	-0.206
RRIRARPPRLPRPRPRPETTPRP	1.61
RRIRARPPRLPRPRPRPWEIPRP	-0.0378
RRIRKRPPRLPRPRPRPFALPRP	0.186
RRIRVRPPRLPRPRPRPRRWPRP	0.334
RRIRLRPPRLPRPRPRPLYEPRP	-0.488
RRIRCRPPRLPRPRPRPYHIPRP	-0.27
RRIRNRPPRLPRPRPRPMVPPRP	0.0885
RRIRWRPPRLPRPRPRPILGPRP	-0.0119
RRIRCRPPRLPRPRPRPYDVPRP	-0.0223
RRIRHRPPRLPRPRPRPKCEPRP	-0.148
RRIRMRPPRLPRPRPRPDANPRP	3.18
RRIRARPPRLPRPRPRPKWSPRP	0.354
RRIRGRPPRLPRPRPRPSWGPRP	0.0507
RRIRWRPPRLPRPRPRPCVHPRP	0.0249
RRIRARPPRLPRPRPRPYKCPRP	-0.138
RRIRWRPPRLPRPRPRPNRIPRP	-0.115
RRIRWRPPRLPRPRPRPAKAPRP	0.747
RRIRQRPPRLPRPRPRPRHCPRP	-0.0425
RRIRMRPPRLPRPRPRPGGGPRP	1.67
RRIRYRPPRLPRPRPRPENHPRP	-0.552
RRIRWRPPRLPRPRPRPMDAPRP	0.051
RRIRYRPPRLPRPRPRPYIIPRP	-0.241
RRIRPRPPRLPRPRPRPDIFPRP	0.0196
